This assay addresses T1, MBP-COP1 (Arabidopsis thaliana, UniProt P43254 1-675).
T1 sequence (looked up): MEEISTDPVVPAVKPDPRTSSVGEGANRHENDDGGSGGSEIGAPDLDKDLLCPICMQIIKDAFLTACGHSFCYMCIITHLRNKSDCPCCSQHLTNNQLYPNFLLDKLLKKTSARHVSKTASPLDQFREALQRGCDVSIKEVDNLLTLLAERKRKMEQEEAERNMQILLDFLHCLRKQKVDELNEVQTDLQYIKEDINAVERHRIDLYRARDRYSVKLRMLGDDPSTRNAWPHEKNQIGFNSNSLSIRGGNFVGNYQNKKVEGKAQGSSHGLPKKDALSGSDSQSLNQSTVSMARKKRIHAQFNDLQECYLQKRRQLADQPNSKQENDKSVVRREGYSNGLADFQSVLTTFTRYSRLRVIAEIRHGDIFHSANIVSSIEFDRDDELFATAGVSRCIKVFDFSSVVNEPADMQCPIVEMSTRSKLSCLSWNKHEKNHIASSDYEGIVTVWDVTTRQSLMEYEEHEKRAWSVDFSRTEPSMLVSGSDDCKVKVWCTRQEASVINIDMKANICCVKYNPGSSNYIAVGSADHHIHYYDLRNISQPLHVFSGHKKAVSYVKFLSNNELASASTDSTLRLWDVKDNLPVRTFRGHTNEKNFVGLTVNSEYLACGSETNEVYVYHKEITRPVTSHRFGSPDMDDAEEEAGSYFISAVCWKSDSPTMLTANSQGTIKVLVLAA
The assay can be described thus: pull-down.

B1: His-COR27 (natural protein, Arabidopsis thaliana, UniProt Q8L8T7 1-246, looked up)
chain: MVGDYRGRFSSRRFSDDSDDSSDDASSVEGETTSSMYSAGKEYMETEWTNEKHSLYLKSMEASFVDQLYNSLGALGKNENVSESTRFGSGRKPSQEQFKVLHDGFWQKINVKQPEHRINGRHGGNSHEFLRSPWIKHYKPLVKTQIPVTDEPENQVVSSSNGKKGICSSGSASSLKQLSSHSRDHDQISVGEAEVSDQNFVNEGIKGENGSSKKMKTVMMSESSSTDQVVPLNKLLQHDVNLKSVS
B1: the binding result is listed as “binds”.

Values taken from PMC7534470 (The Plant Cell, 2020).
